Reference: patent US20100061979A1

Key:
[1] = molecular target: FGF-2 (UniProt P09038); assay: BIAcore, two-state reaction with conformation change model
[2] = molecular target: FGF-2 (UniProt P09038); assay: BIAcore

Chain of UniProt P09038 (P09038 143-288 limits assumed): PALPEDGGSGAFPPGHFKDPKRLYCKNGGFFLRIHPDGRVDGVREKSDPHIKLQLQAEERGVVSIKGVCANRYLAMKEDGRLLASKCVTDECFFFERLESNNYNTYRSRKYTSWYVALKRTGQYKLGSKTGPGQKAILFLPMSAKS

Kd [1]: 1.19 nM
Kd [2]: 1.19 nM
Substance: sFGFR2-Fc variant 4493 (no Ig-like domain 1) (from UniProt P21802 126-377) (Fc fusion)
